Experimental data published in IntAct's records for PubMed 11042109.

B1: NEDD4 family-interacting protein 1 (Mus musculus), Q8R0W6 (parent)
chain: MALALAALAAVEPACGSGYQQLQNEEEPGEPEQTAGDAPPPYSSITAESAAYFDYKDESGFPKPPSYNVATTLPSYDEAERTKTEATIPLVPGRDEDFVGRDDFDDTDQLRIGNDGIFMLTFFMAFLFNWIGFFLSFCLTTSAAGRYGAISGFGLSLIKWILIVRFSTYFPGYFDGQYWLWWVFLVLGFLLFLRGFINYAKVRKMPETFSNLPRTRVLFIY
B2: Protein TMEPAI (Mus musculus), Q9D7R2 (parent)
chain: MSPARATAQRSLFPSMEITELEFVQIVVIVVVMMVMVVMITCLLSHYKLSARSFISRHSQARRRDDGLSSEGCLWPSESTVSGGMPEPQVYAPPRPTDRLAVPPFIQRSRFQPTYPYLQHEIALPPTISLSDGEEPPPYQGPCTLQLRDPEQQLELNRESVRAPPNRTIFDSDLIDSTMLGGPCPPSSNSGISATCYSSGGRMEGPPPTYSEVIGHYPGSSFQHQQSNGPSSLLEGTRLHHSHIAPLENKEKEKQKGHPL
B3: WW domain-binding protein 1 (Mus musculus), P97764 (parent)
chain: MARASSRNSSEEAWGSLQAPQQQQSPAASSLEGAIWRRAGTQTRALDTILYHPQQSHLLRELCPGVNTQPYLCETGHCCGETGCCTYYYELWWFWLLWTVLILFSCCCAFRHRRAKLRLQQQQRQREINLLAYHGACHGAGPVPTGSLLDLRLLSAFKPPAYEDVVHHPGTPPPPYTVGPGYPWTTSSECTRCSSESSCSAHLEGTNVEGVSSQQSALPHQEGEPRAGLSPVHIPPSCRYRRLTGDSGIELCPCPDSSEGEPLKEARASASQPDLEDHSPCALPPDSVSQVPPMGLASSCGDIP
B4: WW domain-binding protein 2 (Mus musculus), P97765 (parent)
chain: MALNKNHSEGGGVIVNNTESILMSYDHVELTFNDMKNVPEAFKGTKKGTVYLTPYRVIFLSKGKDAMQSFMMPFYLMKDCEIKQPVFGANFIKGIVKAEAGGGWEGSASYKLTFTAGGAIEFGQRMLQVASQASRGEVPNGAYGYPYMPSGAYVFPPPVANGMYPCPPGYPYPPPPPEFYPGPPMMDGAMGYVQPPPPPYPGPMEPPVSGPSAPATPAAEAKAAEAAASAYYNPGNPHNVYMPTSQPPPPPYYPPEDKKTQ
B5: RING finger protein 11 (Mus musculus), Q9QYK7 (parent)
chain: MGNCLKSPTSDDISLLHESQSDRASFGEGTEPDQEPPPPYQEQVPVPIYHPTPSQTRLATQLTEEEQIRIAQRIGLIQHLPKGVYDPGRDGSEKKIRECVICMMDFVYGDPIRFLPCMHIYHLDCIDDWLMRSFTCPSCMEPVDAALLSSYETN
B6: Protein BEAN1 (Mus musculus), Q9EQG5 (parent)
chain: MSFKRPCPLARYNRTSYFYPTTFSESSEHSHLLVSPVLVASAVIGVVITLSCITIIVGSIRRDRQARIQRHHHRHRRHHHHHRHRRRRHREYASGGHTHSRSSPRMPYACSPAEDWPPPLDVSSEGDVDVTVLWELYPDSPPGYEECMGPGATQLYVPTDAPPPYSMTDSCPRLNGALDSDSGQSRSHRQQEQRTQGQSRLHTVSMDTLPPYEAVCGTGSPSDLLPLPGPEPWPSNSQGSPIPTQAPMPSPERIV
B7: Lipopolysaccharide-induced tumor necrosis factor-alpha factor homolog (Mus musculus), Q9JLJ0 (parent)
chain: MSAPGPYQAAAGPSVVPTAPPTYEETVGVNSYYPTPPAPMPGPATGLITGPDGKGMNPPSYYTQPVPVPNANAIAVQTVYVQQPVSFYDRPVQMCCPSCSKMIVTQLSYNAGALTWLSCGSLCLLGCVAGCCFIPFCVDALQDVDHYCPNCKALLGTYKRL

Variants of: B1
Conditions: with nedd4_mouse Nedd4, P46935
Target sequence in this assay (P46935 whole entry): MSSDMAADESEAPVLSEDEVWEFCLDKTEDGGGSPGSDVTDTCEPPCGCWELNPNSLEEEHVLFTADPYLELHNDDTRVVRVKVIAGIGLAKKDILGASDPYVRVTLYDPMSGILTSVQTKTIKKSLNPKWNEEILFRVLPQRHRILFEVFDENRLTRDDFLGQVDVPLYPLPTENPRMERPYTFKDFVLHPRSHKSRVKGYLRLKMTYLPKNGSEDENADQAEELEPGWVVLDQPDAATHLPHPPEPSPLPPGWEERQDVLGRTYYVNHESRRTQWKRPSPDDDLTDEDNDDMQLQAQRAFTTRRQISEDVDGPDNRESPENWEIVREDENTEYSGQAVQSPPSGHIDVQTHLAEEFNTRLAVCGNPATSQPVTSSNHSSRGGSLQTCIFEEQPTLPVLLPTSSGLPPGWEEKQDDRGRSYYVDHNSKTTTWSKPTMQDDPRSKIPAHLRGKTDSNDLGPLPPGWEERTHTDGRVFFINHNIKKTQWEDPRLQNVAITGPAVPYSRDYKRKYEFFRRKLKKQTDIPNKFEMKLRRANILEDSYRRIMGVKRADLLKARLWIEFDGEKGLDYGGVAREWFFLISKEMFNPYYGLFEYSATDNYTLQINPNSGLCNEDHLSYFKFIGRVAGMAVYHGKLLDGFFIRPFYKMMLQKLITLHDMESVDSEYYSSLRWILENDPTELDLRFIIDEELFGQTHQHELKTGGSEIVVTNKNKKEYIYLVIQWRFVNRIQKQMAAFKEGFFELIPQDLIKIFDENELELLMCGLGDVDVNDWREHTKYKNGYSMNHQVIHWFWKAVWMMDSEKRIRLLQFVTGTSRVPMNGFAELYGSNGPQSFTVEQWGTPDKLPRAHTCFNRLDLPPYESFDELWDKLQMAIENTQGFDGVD

Variant | effect of a mutation on the interaction
Y42A | decreasing interaction strength

Variants of: B2
Conditions: with nedd4_mouse Nedd4, P46935
Target sequence in this assay (P46935 whole entry): as above

Variant | effect of a mutation on the interaction
Y139A | decreasing interaction strength

Variants of: B2
Conditions: with nedd4_mouse Nedd4, P46935
Remark: another data set of the same source
Target sequence in this assay (P46935 whole entry): as above

Variant | effect of a mutation on the interaction
Y210A | disrupting interaction strength

Variants of: B2
Conditions: with nedd4_mouse Nedd4, P46935
Remark: another data set of the same source
Target sequence in this assay (P46935 whole entry): as above

Variant | effect of a mutation on the interaction
Y210A | disrupting interaction strength

Variants of: B3
Conditions: with nedd4_mouse Nedd4, P46935
Target sequence in this assay (P46935 whole entry): as above

Variant | effect of a mutation on the interaction
Y176A | disrupting interaction strength

Variants of: B3
Conditions: with nedd4_mouse Nedd4, P46935
Remark: another data set of the same source
Target sequence in this assay (P46935 whole entry): as above

Variant | effect of a mutation on the interaction
Y162A | disrupting interaction strength

Variants of: B4
Conditions: with nedd4_mouse Nedd4, P46935

Variant | effect of a mutation on the interaction
Y200A | decreasing interaction strength

Variants of: B4
Conditions: with nedd4_mouse Nedd4, P46935
Remark: another data set of the same source

Variant | effect of a mutation on the interaction
Y200A | decreasing interaction strength

Variants of: B4
Conditions: with nedd4_mouse Nedd4, P46935
Remark: another data set of the same source

Variant | effect of a mutation on the interaction
Y200A | disrupting interaction strength

Variants of: B4
Conditions: with nedd4_mouse Nedd4, P46935
Remark: another data set of the same source

Variant | effect of a mutation on the interaction
Y252A | decreasing interaction strength

Variants of: B5
Conditions: with nedd4_mouse Nedd4, P46935

Variant | effect of a mutation on the interaction
Y40A | disrupting interaction

Variants of: B5
Conditions: with nedd4_mouse Nedd4, P46935
Remark: another data set of the same source

Variant | effect of a mutation on the interaction
Y40A | disrupting interaction strength

Variants of: B6
Conditions: with nedd4_mouse Nedd4, P46935

Variant | effect of a mutation on the interaction
Y144A;Y165A | disrupting interaction strength

Variants of: B6
Conditions: with nedd4_mouse Nedd4, P46935
Remark: another data set of the same source

Variant | effect of a mutation on the interaction
Y144A;Y165A | disrupting interaction strength
Y165A | disrupting interaction strength
Y144A | disrupting interaction strength

Variants of: B7
Conditions: with nedd4_mouse Nedd4, P46935

Variant | effect of a mutation on the interaction
Y23A | disrupting interaction strength
